Test results published in patent publication US20110112012A1 (UNIVERSITY OF GEORGIA STUDIES RESEARCH FOUNDATION, published 2011).

T1: Cry4Ba toxin (Cry4BRA mutant, R203 replaced by A) of Bacillus thuringiensis israelensis (Bacillus thuringiensis israelensis, UniProt P05519 51-641)
T1 construct: domain: ~66 kDa toxin mosquitocidal fragment; also called labeled Cry4Ba
T1 sequence: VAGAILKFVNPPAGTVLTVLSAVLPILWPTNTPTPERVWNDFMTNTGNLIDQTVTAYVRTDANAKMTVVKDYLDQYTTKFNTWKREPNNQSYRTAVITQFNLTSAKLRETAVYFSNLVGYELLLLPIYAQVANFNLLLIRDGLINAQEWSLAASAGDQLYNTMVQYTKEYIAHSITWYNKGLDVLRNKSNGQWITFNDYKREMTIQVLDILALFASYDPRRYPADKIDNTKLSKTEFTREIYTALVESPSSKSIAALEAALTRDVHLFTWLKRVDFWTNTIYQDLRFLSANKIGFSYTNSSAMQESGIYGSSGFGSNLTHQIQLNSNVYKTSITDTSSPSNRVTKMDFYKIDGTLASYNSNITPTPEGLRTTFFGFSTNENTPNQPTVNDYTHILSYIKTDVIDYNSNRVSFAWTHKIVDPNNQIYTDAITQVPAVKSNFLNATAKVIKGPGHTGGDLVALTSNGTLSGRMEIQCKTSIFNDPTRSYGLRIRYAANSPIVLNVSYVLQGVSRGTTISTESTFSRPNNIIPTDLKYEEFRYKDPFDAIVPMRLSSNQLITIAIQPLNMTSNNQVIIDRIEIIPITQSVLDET

B1: CR11-MPED peptide of AgCad1 (amino acids 1358G to 1569A), expressed in E. coli (peptide)
chain: GITTNDRVPKALFRVYAEDPDEDEIIRYELVNGTAVGENLQTDGLPFRLHPDSGELTLTSKVQPNQNGYYQLTLIAFDRDDTHNDTVPAKVYIVSESNRVTFVFLNSVEEIDQPDVRKFLAQELTGAYEMECNIDDIDQTTASDGRQAGGSSSALTDVRTHFIQDNQAVEASRIQQRSSNRTFVTVLKTTLRTRGLSLQDVPPLATEALTEA
notes: Biotinylated with sulfo-NHS-PC-biotin for the microplate assay; also called AgCad CR11-MPED; AgCad-CR11-MPED
B2: CR9-11 fragment of AgCad1, expressed in E. coli (peptide)
chain: GSPLPKFEAIDDDGGIYGDVTFSLTSTNDGEQDHEVFRVDKVDNKTGLLVLENSLAVQPFPKNYSITVIARDGGDRQSEAAIHVVFINMTGEPAFLEPTFDTDFTENEEGRDERRQLPFAEDPKNAGLPPGAETNVYYFIDKTYGNASHLFQLDRVSNVLQLAQLLDREEIPTPEIRIVATNNENSPPDTVLESSPSLLVVRIKVNDVNDNPPVFQQRLYAAGITTNDRVPKALFRVYAEDPDEDEIIRYELVNGTAVGENLQTDGLPFRLHPDSGELTLTSKVQPNQNGYYQLTLIAFDRDDTHNDTVPAKVYIVSESNRVTFVF
notes: Biotinylated for the microplate assay; also called AgCad CR9-11; AgCad-CR9-11

Molecular target: T1, Cry4Ba toxin (Cry4BRA mutant, R203 …)
Assay: microplate ELISA, Cry4Ba coated, biotinylated fragment titrated, one site saturation fit

| Binder | Kd |
| --- | --- |
| B1 | 393 nM |
| B2 | 173 nM |
